Experimental data: article PMC11187563, “The importance of tyrosines in multimers of cyclic RGD nonapeptides: towards αvβ6-integrin targeted radiotherapeutics” (RSC Medicinal Chemistry, 2024)
Where two headings read alike, the source gives them in different places.

Assays:
[1] = Ex vivo biodistribution of 177Lu-labeled peptide tetramers in H2009 xenografted SCID mice; conditions: CB17 SCID, mouse, iv, total radioactivity; for tissue uptake at 1.5 h / tissue to tissue ratio at 1.5 h: 90 min p.i.; for tissue uptake at 24 h / tissue to tissue ratio at 24 h: 154 pmol, 24 h p.i.; for tissue uptake at 72 h / tissue to tissue ratio at 72 h: 199 pmol, 3 d p.i.
Procedure, shortened: (§1)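 SCID mice carried subcutaneous H2009 xenografts on the right shoulder. 177Lu-labeled conjugates were injected i.v., and ex vivo organ distribution was measured at two time points post-injection.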

[2] = system: αvβ6-integrin expressing human lung adenocarcinoma cell line H2009 xenografts; assay: as above; conditions: H2009 bearing SCID mice
Procedure, shortened: as §1

[3] = spleen, H2009 bearing SCID mice, read-out: Spleen %IA/g
[4] = stomach (empty), H2009 bearing SCID mice, read-out: Stomach (empty) %IA/g
[5] = tumor/pancreas, H2009 bearing SCID mice, read-out: tumor/organ ratio, Pancreas

In the case of `CC(C)C[C@@H]1NC(=O)[C@H](CC(=O)O)NC(=O)CNC(=O)[C@H](CCCNC(=N)N)NC(=O)[C@H](Cc2ccc(O)cc2)NC(=O)[C@H](CCCCNC(=O)CCc2cn(CCCNC(=O)CCP(=O)(O)CN3CCN(CP(=O)(O)CCC(=O)NCCCn4cc(CCC(=O)NCCCC[C@H]5C(=O)N[C@@H](Cc6ccc(O)cc6)C(=O)N[C@@H](CCCNC(=N)N)C(=O)NCC(=O)N[C@@H](CC(=O)O)C(=O)N[C@@H](CC(C)C)C(=O)N[C@@H](C)C(=O)N[C@@H](Cc6ccc(O)cc6)C(=O)N6CCC[C@@H]6C(=O)N5C)nn4)CCN(CP(=O)(O)CCC(=O)NCCCn4cc(CCC(=O)NCCCC[C@H]5C(=O)N[C@@H](Cc6ccc(O)cc6)C(=O)N[C@@H](CCCNC(=N)N)C(=O)NCC(=O)N[C@@H](CC(=O)O)C(=O)N[C@@H](CC(C)C)C(=O)N[C@@H](C)C(=O)N[C@@H](Cc6ccc(O)cc6)C(=O)N6CCC[C@@H]6C(=O)N5C)nn4)CCN(CP(=O)(O)CCC(=O)NCCCn4cc(CCC(=O)NCCCC[C@H]5C(=O)N[C@@H](Cc6ccc(O)cc6)C(=O)N[C@@H](CCCNC(=N)N)C(=O)NCC(=O)N[C@@H](CC(=O)O)C(=O)N[C@@H](CC(C)C)C(=O)N[C@@H](C)C(=O)N[C@@H](Cc6ccc(O)cc6)C(=O)N6CCC[C@@H]6C(=O)N5C)nn4)CC3)nn2)N(C)C(=O)[C@H]2CCCN2C(=O)[C@H](Cc2ccc(O)cc2)NC(=O)[C@H](C)NC1=O` [Compound 177Lu-Y8, metal not drawn], the tissue uptake at 1.5 h ([1]; small intestine (empty), + 50 nmol non-labeled compound 10 min prior to activity, n = 2, read-out: Small intestine (empty) %IA/g, + 50 nmol cold) is reported as 0.62 %ID/g, the tissue uptake at 1.5 h ([1]; spleen, 124 pmol, H2009 bearing SCID mice, read-out: Spleen %IA/g) is reported as 8.41 %ID/g and the tissue uptake at 24 h [1, 3] is reported as 1.89 %ID/g. The tissue uptake at 72 h [1, 3] was 2.01 %ID/g, the tissue uptake at 1.5 h ([1]; spleen, + 50 nmol non-labeled compound 10 min prior to activity, n = 2, read-out: Spleen %IA/g, + 50 nmol cold) was 4.99 %ID/g and the tissue uptake at 1.5 h ([1]; stomach (empty), 124 pmol, H2009 bearing SCID mice, read-out: Stomach (empty) %IA/g) was 8.26 %ID/g. For the same compound, the tissue uptake at 24 h [1, 4] was 3.84 %ID/g, the tissue uptake at 72 h [1, 4] was 2.65 %ID/g and the tissue uptake at 1.5 h ([1]; stomach (empty), + 50 nmol non-labeled compound 10 min prior to activity, n = 2, read-out: Stomach (empty) %IA/g, + 50 nmol cold) was 1.19 %ID/g. For the same compound, the tissue uptake at 24 h ([1]; tumor (H2009 xenograft), H2009 bearing SCID mice, read-out: Tumor H2009 %IA/g) was 2.42 %ID/g, the tissue uptake at 1.5 h ([1]; tumor (H2009 xenograft), + 50 nmol non-labeled compound 10 min prior to activity, n = 2, read-out: Tumor H2009 %IA/g, + 50 nmol cold) was 1.71 %ID/g and the tissue to tissue ratio at 72 h ([1]; tumor / adrenals, H2009 bearing SCID mice, read-out: tumor/organ ratio, Adrenals) was 4.5. The tissue to tissue ratio at 24 h ([1]; tumor / blood, H2009 bearing SCID mice, read-out: tumor/organ ratio, Blood) was 59.6, the tissue to tissue ratio at 72 h ([1]; tumor / bone, H2009 bearing SCID mice, read-out: tumor/organ ratio, Bone) was 3.4 and the tissue to tissue ratio at 24 h ([1]; tumor / heart (myocard), H2009 bearing SCID mice, read-out: tumor/organ ratio, Heart (myocard)) was 15.2. It also gave a tissue to tissue ratio at 72 h ([1]; tumor / large intestine (empty), H2009 bearing SCID mice, read-out: tumor/organ ratio, Large intestine (empty)) of 3.6, a tissue to tissue ratio at 24 h ([1]; tumor / liver, H2009 bearing SCID mice, read-out: tumor/organ ratio, Liver) of 2.7 and a tissue to tissue ratio at 24 h ([1]; tumor / lung, H2009 bearing SCID mice, read-out: tumor/organ ratio, Lung) of 2.1. The tissue to tissue ratio at 72 h ([1]; tumor / muscle, H2009 bearing SCID mice, read-out: tumor/organ ratio, Muscle) was 8.4, the tissue to tissue ratio at 72 h ([1]; tumor / small intestine (empty), H2009 bearing SCID mice, read-out: tumor/organ ratio, Small intestine (empty)) was 11.4 and the tissue to tissue ratio at 24 h ([1]; tumor / spleen, H2009 bearing SCID mice, read-out: tumor/organ ratio, Spleen) was 1.4. For the same compound, the tissue to tissue ratio at 72 h ([1]; tumor / stomach (empty), H2009 bearing SCID mice, read-out: tumor/organ ratio, Stomach (empty)) was 0.8, the tissue to tissue ratio at 1.5 h ([1]; tumor/adrenals, 124 pmol, H2009 bearing SCID mice, read-out: tumor/organ ratio, Adrenals) was 8.9 and the tissue to tissue ratio at 24 h ([1]; tumor/adrenals, H2009 bearing SCID mice, read-out: tumor/organ ratio, Adrenals) was 10.2. The tissue to tissue ratio at 1.5 h ([1]; tumor/blood, 124 pmol, H2009 bearing SCID mice, read-out: tumor/organ ratio, Blood) was 2.4, the tissue to tissue ratio at 72 h ([1]; tumor/blood, H2009 bearing SCID mice, read-out: tumor/organ ratio, Blood) was 67 and the tissue to tissue ratio at 1.5 h ([1]; tumor/bone, 124 pmol, H2009 bearing SCID mice, read-out: tumor/organ ratio, Bone) was 1.8. The tissue to tissue ratio at 24 h ([1]; tumor/bone, H2009 bearing SCID mice, read-out: tumor/organ ratio, Bone) was 3.6, the tissue to tissue ratio at 1.5 h ([1]; tumor/heart (myocard), 124 pmol, H2009 bearing SCID mice, read-out: tumor/organ ratio, Heart (myocard)) was 5.9 and the tissue to tissue ratio at 72 h ([1]; tumor/heart (myocard), H2009 bearing SCID mice, read-out: tumor/organ ratio, Heart (myocard)) was 12.2. The tissue to tissue ratio at 1.5 h ([1]; tumor/large intestine (empty), 124 pmol, H2009 bearing SCID mice, read-out: tumor/organ ratio, Large intestine (empty)) was 1.8, the tissue to tissue ratio at 24 h ([1]; tumor/large intestine (empty), H2009 bearing SCID mice, read-out: tumor/organ ratio, Large intestine (empty)) was 1.8 and the tissue to tissue ratio at 1.5 h ([1]; tumor/liver, 124 pmol, H2009 bearing SCID mice, read-out: tumor/organ ratio, Liver) was 5.1. For the same compound, the tissue to tissue ratio at 72 h ([1]; tumor/liver, H2009 bearing SCID mice, read-out: tumor/organ ratio, Liver) was 2.4, the tissue to tissue ratio at 1.5 h ([1]; tumor/lung, 124 pmol, H2009 bearing SCID mice, read-out: tumor/organ ratio, Lung) was 1 and the tissue to tissue ratio at 72 h ([1]; tumor/lung, H2009 bearing SCID mice, read-out: tumor/organ ratio, Lung) was 2.2. The tissue to tissue ratio at 1.5 h ([1]; tumor/muscle, 124 pmol, H2009 bearing SCID mice, read-out: tumor/organ ratio, Muscle) was 7.4, the tissue to tissue ratio at 24 h ([1]; tumor/muscle, H2009 bearing SCID mice, read-out: tumor/organ ratio, Muscle) was 9.5 and the tissue to tissue ratio at 1.5 h ([1]; tumor/pancreas, 124 pmol, H2009 bearing SCID mice, read-out: tumor/organ ratio, Pancreas) was 14.3. The tissue to tissue ratio at 24 h [1, 5] was 18.4, the tissue to tissue ratio at 72 h [1, 5] was 14.9 and the tissue to tissue ratio at 1.5 h ([1]; tumor/small intestine (empty), 124 pmol, H2009 bearing SCID mice, read-out: tumor/organ ratio, Small intestine (empty)) was 2.1. It also gave a tissue to tissue ratio at 24 h ([1]; tumor/small intestine (empty), H2009 bearing SCID mice, read-out: tumor/organ ratio, Small intestine (empty)) of 2.5, a tissue to tissue ratio at 1.5 h ([1]; tumor/spleen, 124 pmol, H2009 bearing SCID mice, read-out: tumor/organ ratio, Spleen) of 0.7 and a tissue to tissue ratio at 72 h ([1]; tumor/spleen, H2009 bearing SCID mice, read-out: tumor/organ ratio, Spleen) of 1. For the same compound, the tissue to tissue ratio at 1.5 h ([1]; tumor/stomach (empty), 124 pmol, H2009 bearing SCID mice, read-out: tumor/organ ratio, Stomach (empty)) was 0.7, the tissue to tissue ratio at 24 h ([1]; tumor/stomach (empty), H2009 bearing SCID mice, read-out: tumor/organ ratio, Stomach (empty)) was 0.7 and the “tumor/organ ratio, Kidneys” value ([2]; 90 min p.i.) was 0.0. For the same compound, the “tumor/organ ratio, Kidneys” value ([2]; 24 h p.i.) was 0.0 and the “tumor/organ ratio, Kidneys” value ([2]; 3 d p.i.) was 0.0.
